The labels stand for the following.
B1: Pistol ribozyme (parent)
chain: GGGUCGUUGUUCCAUAAUCGCGUGGAUAUGGCACGCAAGUUUCUACCGGGCACCGUAAAUGUCCGACUGGAGCCGUUCGGGCGGCUAUAAACAGACCUCAGGCCCGAAGCGUGGCGGCACCUGCCGCCGGUGGUAAAAAAGAUCGGAAGAGCACACGUCU

In the data set the parent is B1. The data set is described as follows: aptazyme ON/OFF ratio, guanine; higher = stronger switching; co-transcriptional cleavage with and without guanine.
Regarding U7C U8C G9U U11A C12A, the “aptazyme ON/OFF ratio” value turned out to be 1.21.
In the case of U7C U8C U10C U11A C12A it was 1.31; in that of U7C U8C U10C U11A C12U, 1.32.
In the case of U7C U8C U10C U11A C12G, the “aptazyme ON/OFF ratio” value is 1.05.
On to U7C U8C U10A C12A C13G, for which the “aptazyme ON/OFF ratio” value turned out to be 1.06.
For the variant U7C U8C U10A C12A C13U, the “aptazyme ON/OFF ratio” value was found to be 1.04.
Then U7C U8C U10A C12A C13A, with 1.05; and U7C U8C G9U U10G U11C C12U C13A, with 1.12; and U7C U8C G9U U10G U11C C12U C13U, with 1.18.
Consider U7C U8C G9U U10G U11C C12U C13G, for which the “aptazyme ON/OFF ratio” value amounted to 1.09.
In the case of U7C U8C U10A U11G C12A it was 1.13; in that of U7C U8C U10A U11G C12G, 1.41.
For the variant U7C U8C U10A U11G C12U, the “aptazyme ON/OFF ratio” value was found to be 1.25.
U7C U8C G9U U11C C12U: the “aptazyme ON/OFF ratio” value amounted to 1.04.
In the case of U7C U8C G9U U11C C12G, the “aptazyme ON/OFF ratio” value turned out to be 1.22.
In the case of U7C U8C G9U U11C C12A it was 1.17.
Take U7C U8C G9U U11G C12U: the “aptazyme ON/OFF ratio” value was 1.19.
In the case of U7C U8C G9U U11G C12A it was 1.19; in that of U7C U8C G9U U11G C12G, 1.19; in that of U7C U8C G9U U10G U11G C12G, 1.1.
Then U7C U8C G9U U10G U11G C12U, with 1.1.
U7C U8C G9U U10G U11G C12A: the “aptazyme ON/OFF ratio” value amounted to 1.13.
Then U7C U8C G9U U10C U11C C12G C13U, with 1.05; and U7C U8C G9U U10C U11C C12G C13G, with 1.18; and U7C U8C G9U U10C U11C C12G C13A, with 1.05.
Then U7C U8C U10G U11A C12G C13G, with 1.11.
Then U7C U8C U10G U11A C12G C13U, with 1.09.
For the variant U7C U8C U10G U11A C12G C13A, the “aptazyme ON/OFF ratio” value stood at 1.08.
Then U7C U8C U10C U11C C12G, with 1.2; and U7C U8C U10C U11C C12A, with 1.24.
Then U7C U8C U10C U11C C12U, with 1.26; and U7C U8C G9U U11C C12G C13G, with 1.12.
In the case of U7C U8C G9U U11C C12G C13U it was 1.08; in that of U7C U8C G9U U11C C12G C13A, 1.12; in that of U7C U8C U10G U11A C12A C13G, 1.12.
In the case of U7C U8C U10G U11A C12A C13U, the “aptazyme ON/OFF ratio” value is 1.25.
In the case of U7C U8C U10G U11A C12A C13A it was 1.11; in that of U7C U8C G9U U10C U11C C12A C13A, 1.12; in that of U7C U8C G9U U10C U11C C12A C13G, 1.18.
For U7C U8C G9U U10C U11C C12A C13U, the “aptazyme ON/OFF ratio” value came to 1.16.
In the case of U7C U8C U10A, the “aptazyme ON/OFF ratio” value is 1.35.
For U7C U8C U10G, the “aptazyme ON/OFF ratio” value came to 1.98.
In the case of U7C U8C U10C, the “aptazyme ON/OFF ratio” value amounted to 1.26.
Then U7C U8C U10A U11C C12A C13G, with 1.16.
For U7C U8C U10A U11C C12A C13A, the “aptazyme ON/OFF ratio” value was 1.13.
With U7C U8C U10A U11C C12A C13U, the “aptazyme ON/OFF ratio” value stood at 1.15.
In the case of U7C U8C G9U U10G U11C C12G C13U it was 1.1; in that of U7C U8C G9U U10G U11C C12G C13G, 1.17; in that of U7C U8C G9U U10G U11C C12G C13A, 1.08.
On to U7C U8C G9U U10G U11A, for which the “aptazyme ON/OFF ratio” value turned out to be 1.32.
In the case of U7C U8C G9U U10G U11G, the “aptazyme ON/OFF ratio” value worked out at 1.21.
In the case of U7C U8C G9U U10G U11C, the “aptazyme ON/OFF ratio” value was 1.39.
Then U7C U8C U10C U11A C12U C13U, with 1.29; and U7C U8C U10C U11A C12U C13A, with 1.33; and U7C U8C U10C U11A C12U C13G, with 1.25.
For U7C U8C G9U U10G U11G C12U C13G, the “aptazyme ON/OFF ratio” value came out at 1.09.
In the case of U7C U8C G9U U10G U11G C12U C13U it was 1.08; in that of U7C U8C G9U U10G U11G C12U C13A, 1.08; in that of U7C U8C U10C U11C C13U, 1.38.
For the variant U7C U8C U10C U11C C13G, the “aptazyme ON/OFF ratio” value came to 1.28.
As to U7C U8C U10C U11C C13A, the “aptazyme ON/OFF ratio” value turned out to be 1.31.
For the variant U7C U8C G9U U10G U11A C12U C13A, the “aptazyme ON/OFF ratio” value was 1.1.
In the case of U7C U8C G9U U10G U11A C12U C13U, the “aptazyme ON/OFF ratio” value came to 1.21.
On to U7C U8C G9U U10G U11A C12U C13G, for which the “aptazyme ON/OFF ratio” value was 1.12.
In the case of U7C U8C G9U U10G U11A C12G C13A it was 1.06; in that of U7C U8C G9U U10G U11A C12G C13U, 1.08; in that of U7C U8C G9U U10G U11A C12G C13G, 1.18.
Then U7C U8C U10C C12U C13A, with 1.35; and U7C U8C U10C C12U C13U, with 1.45.
As for U7C U8C U10C C12U C13G, the “aptazyme ON/OFF ratio” value is 1.34.
Then U7C U8C U10A C13U, with 1.04; and U7C U8C U10A C13G, with 1.05.
In the case of U7C U8C U10A C13A it was 1.06; in that of U7C U8C G9U U10C U11A C12U C13A, 1.13; in that of U7C U8C G9U U10C U11A C12U C13U, 1.09.
For U7C U8C G9U U10C U11A C12U C13G, the “aptazyme ON/OFF ratio” value worked out at 1.14.
As for U7C U8C G9U U11A C12A C13A, the “aptazyme ON/OFF ratio” value was 1.17.
Then U7C U8C G9U U11A C12A C13U, with 1.28; and U7C U8C G9U U11A C12A C13G, with 1.1; and U7C U8C G9U U10C U11G C13A, with 1.07.
On to U7C U8C G9U U10C U11G C13G, for which the “aptazyme ON/OFF ratio” value amounted to 1.3.
Regarding U7C U8C G9U U10C U11G C13U, the “aptazyme ON/OFF ratio” value is 1.29.
Then U7C U8C U10A U11C C12G C13G, with 1.22; and U7C U8C U10A U11C C12G C13U, with 1.29.
